From PMC6588440 (Free radical biology & medicine, 2019)

B1: Peroxiredoxin 2 (Prx2) (natural protein, UniProt P32119 1-198, looked up)
chain: MASGNARIGKPAPDFKATAVVDGAFKEVKLSDYKGKYVVLFFYPLDFTFVCPTEIIAFSNRAEDFRKLGCEVLGVSVDSQFTHLAWINTPRKEGGLGPLNIPLLADVTRRLSEDYGVLKTDEGIAYRGLFIIDGKGVLRQITVNDLPVGRSVDEALRLVQAFQYTDEHGEVCPAGWKPGSDTIKPNVDDSKEYFSKHN
modifications: inter-subunit disulfide (oxidized dimer); reduced thiols alkylated with NEM before lysis
B2: Peroxiredoxin 1 (Prx1) (natural protein, UniProt Q06830 1-199, looked up)
chain: MSSGNAKIGHPAPNFKATAVMPDGQFKDISLSDYKGKYVVFFFYPLDFTFVCPTEIIAFSDRAEEFKKLNCQVIGASVDSHFCHLAWVNTPKKQGGLGPMNIPLVSDPKRTIAQDYGVLKADEGISFRGLFIIDDKGILRQITVNDLPVGRSVDETLRLVQAFQFTDKHGEVCPAGWKPGSDTIKPDVQKSKEYFSKQK
modifications: inter-subunit disulfide (oxidized dimer); reduced thiols alkylated with NEM before lysis
B3: Peroxiredoxin 3 (Prx3) (natural protein, UniProt P30048 62-256, looked up)
chain: APAVTQHAPYFKGTAVVNGEFKDLSLDDFKGKYLVLFFYPLDFTFVCPTEIVAFSDKANEFHDVNCEVVAVSVDSHFSHLAWINTPRKNGGLGHMNIALLSDLTKQISRDYGVLLEGSGLALRGLFIIDPNGVIKHLSVNDLPVGRSVEETLRLVKAFQYVETHGEVCPANWTPDSPTIKPSPAASKEYFQKVNQ
modifications: inter-subunit disulfide (oxidized dimer); reduced thiols alkylated with NEM before lysis

Target: the molecule itself
Assay: non-reducing SDS-PAGE immunoblot

| Protein | stoichiometry N |
| --- | --- |
| B1 | 2 |
| B2 | 2 |
| B3 | 2 |
